Residue numbers refer to the chain shown, from its start. Names and notes keep the numbering of the source.
T1: N-terminally Flag-tagged POLD1 C1076S (human, UniProt P28340 1-1107, C1076S)
T1 construct: DNA polymerase delta catalytic subunit POLD1/p125, human; variant made by site-directed mutagenesis; also called CS; Pol δ-CS (bait subunit); source: Sf9 insect cells, baculovirus co-infection, in lysate; Flag-purified (Flag-M2 agarose, 3x Flag peptide elution); not shown: Flag, N-terminal, kept
T1 sequence (looked up): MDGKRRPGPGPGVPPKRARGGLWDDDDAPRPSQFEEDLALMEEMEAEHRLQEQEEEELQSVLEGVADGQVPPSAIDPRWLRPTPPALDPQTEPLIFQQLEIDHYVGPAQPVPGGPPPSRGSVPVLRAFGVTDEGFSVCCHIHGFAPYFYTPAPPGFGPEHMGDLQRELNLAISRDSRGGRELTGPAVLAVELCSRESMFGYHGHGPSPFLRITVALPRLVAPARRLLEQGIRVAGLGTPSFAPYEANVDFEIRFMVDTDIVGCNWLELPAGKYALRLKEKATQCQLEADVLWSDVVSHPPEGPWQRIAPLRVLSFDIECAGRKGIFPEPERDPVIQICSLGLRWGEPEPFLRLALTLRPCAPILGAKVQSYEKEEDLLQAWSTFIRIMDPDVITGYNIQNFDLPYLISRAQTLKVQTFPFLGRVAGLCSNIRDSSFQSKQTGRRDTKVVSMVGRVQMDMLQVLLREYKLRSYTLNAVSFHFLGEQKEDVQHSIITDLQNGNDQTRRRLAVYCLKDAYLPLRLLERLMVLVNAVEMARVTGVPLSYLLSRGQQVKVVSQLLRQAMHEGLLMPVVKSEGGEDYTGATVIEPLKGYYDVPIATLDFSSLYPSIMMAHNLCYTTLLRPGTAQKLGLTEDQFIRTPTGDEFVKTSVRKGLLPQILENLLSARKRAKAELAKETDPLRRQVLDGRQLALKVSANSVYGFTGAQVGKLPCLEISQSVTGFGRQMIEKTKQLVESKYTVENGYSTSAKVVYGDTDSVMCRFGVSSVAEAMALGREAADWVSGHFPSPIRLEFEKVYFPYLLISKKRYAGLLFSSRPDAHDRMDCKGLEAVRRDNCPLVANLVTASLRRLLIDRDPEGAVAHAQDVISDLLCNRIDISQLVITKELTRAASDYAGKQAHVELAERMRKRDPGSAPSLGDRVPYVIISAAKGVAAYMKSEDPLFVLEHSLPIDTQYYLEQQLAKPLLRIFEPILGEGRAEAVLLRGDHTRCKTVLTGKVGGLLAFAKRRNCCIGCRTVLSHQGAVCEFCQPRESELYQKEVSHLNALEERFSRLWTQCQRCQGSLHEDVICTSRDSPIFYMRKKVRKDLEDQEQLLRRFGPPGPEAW

T2: N-terminally Flag-tagged POLD1 (catalytic subunit of human DNA polymerase delta), wild type (human, UniProt P28340 1-1107)
T2 construct: DNA polymerase delta catalytic subunit POLD1/p125, human; also called p125; Flag-POLD1; source: Sf9 insect cells, baculovirus co-infection, in lysate; Flag-purified (Flag-M2 agarose, 3x Flag peptide elution); not shown: Flag, N-terminal, kept
T2 sequence (looked up): T1 sequence (looked up) with S1076C

B1: POLD3 (accessory subunit of human DNA polymerase delta), untagged (natural protein, UniProt Q15054 1-466, looked up)
chain: MADQLYLENIDEFVTDQNKIVTYKWLSYTLGVHVNQAKQMLYDYVERKRKENSGAQLHVTYLVSGSLIQNGHSCHKVAVVREDKLEAVKSKLAVTASIHVYSIQKAMLKDSGPLFNTDYDILKSNLQNCSKFSAIQCAAAVPRAPAESSSSSKKFEQSHLHMSSETQANNELTTNGHGPPASKQVSQQPKGIMGMFASKAAAKTQETNKETKTEAKEVTNASAAGNKAPGKGNMMSNFFGKAAMNKFKVNLDSEQAVKEEKIVEQPTVSVTEPKLATPAGLKKSSKKAEPVKVLQKEKKRGKRVALSDDETKETENMRKKRRRIKLPESDSSEDEVFPDSPGAYEAESPSPPPPPSPPLEPVPKTEPEPPSVKSSSGENKRKRKRVLKSKTYLDGEGCIVTEKVYESESCTDSEEELNMKTSSVHRPPAMTVKKEPREERKGPKKGTAALGKANRQVSITGFFQRK
notes: DNA polymerase delta subunit 3 POLD3/p66, human; Expressed from a cassette with self-cleaving T2A peptides; T2A remnants probably stay on its ends and differ between the two cassettes (my surmise); also called p66; source: Sf9 insect cells, baculovirus co-infection (POLD2-T2A-POLD3-T2A-POLD4 or POLD2-T2A-POLD3 cassette), in lysate; co-purified with Flag-POLD1
B2: POLD4 (accessory subunit of human DNA polymerase delta), untagged (natural protein, UniProt Q9HCU8 1-107, looked up)
chain: MGRKRLITDSYPVVKRREGPAGHSKGELAPELGEEPQPRDEEEAELELLRQFDLAWQYGPCTGITRLQRWCRAKQMGLEPPPEVWQVLKTHPGDPRFQCSLWHLYPL
notes: DNA polymerase delta subunit 4 POLD4/p12, human; Expressed from a cassette with self-cleaving T2A peptides; A residue of the T2A probably stays on its N-terminus (my surmise); also called p12; source: Sf9 insect cells, baculovirus co-infection (POLD2-T2A-POLD3-T2A-POLD4 cassette), in lysate; co-purified with Flag-POLD1
B3: POLD2 (accessory subunit of human DNA polymerase delta), untagged (natural protein)
chain: not shown
notes: DNA polymerase delta subunit 2 POLD2/p50, human; Expressed from a cassette with self-cleaving T2A peptides; A T2A remnant probably stays on its C-terminus (my surmise); also called p50; source: Sf9 insect cells, baculovirus co-infection (POLD2-T2A-POLD3-T2A-POLD4 or POLD2-T2A-POLD3 cassette), in lysate; co-purified with Flag-POLD1

Columns and labels:
[1] = target: T1, N-terminally Flag-tagged POLD1 C1076S; assay: pull-down; Flag-pull down (Flag-M2 agarose) from lysate of Sf9 cells co-expressing Flag-POLD1 variant, POLD2, POLD3, POLD4 and untagged PCNA; 50 mM Tris-HCl pH 8.0, 200 mM NaCl, 0.25% NP-40, 4°C; SDS-PAGE with protein stain; conditions: partners not purified
[2] = target: T2, N-terminally Flag-tagged POLD1 …; assay: as above; conditions: partners not purified

Binder	binding result [1]	binding result [2]
B1	binds	binds
B2	binds	binds
B3	binds	–
